Tested on: peptide library, one residue held at a place counted from the S/T acceptor
Assay: relative phosphorylation of the sub-library (ratio to the mean residue at this position); higher = residue favoured
Method in brief: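 Relative sub-library phosphorylation is the ratio of each sub-library's signal to the mean residue at that position. The signal came from phosphorimaging of spots on streptavidin membranes, quantified by densitometry, after purified recombinant kinases reacted with biotinylated degenerate peptide sub-libraries in 384-well plates. Reactions held 50 μM peptide and 50 μM ATP spiked with γ-32P-ATP for 90 min under kinase-specific conditions.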

Chain of PAK4, construct: aa295-end, human (O96013 295-591, looked up): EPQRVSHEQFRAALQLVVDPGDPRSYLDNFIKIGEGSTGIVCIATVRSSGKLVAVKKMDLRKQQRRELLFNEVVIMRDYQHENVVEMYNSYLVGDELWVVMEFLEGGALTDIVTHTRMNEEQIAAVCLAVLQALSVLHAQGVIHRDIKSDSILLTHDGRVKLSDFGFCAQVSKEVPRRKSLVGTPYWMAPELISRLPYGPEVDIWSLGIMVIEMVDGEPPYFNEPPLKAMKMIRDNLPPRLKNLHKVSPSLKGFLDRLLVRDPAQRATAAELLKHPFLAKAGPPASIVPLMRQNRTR

DYRK1A, construct: aa147-185, human (from UniProt Q13627)
relative phosphorylation
Settings | at +1 | at +2 | at +3 | at +4 | at -1 | at -2 | at -3 | at -4 | at -5
A fixed | 0.555 | 0.855 | 0.76 | 0.819 | 1.27 | 1.63 | 0.864 | 0.989 | 0.962
D fixed | 0.289 | 0.642 | 0.666 | 0.794 | 0.556 | 0.35 | 0.461 | 0.768 | 0.695
E fixed | 0.286 | 0.461 | 0.598 | 0.768 | 0.59 | 0.348 | 0.372 | 0.879 | 0.674
F fixed | 0.557 | 1.42 | 1.41 | 1.97 | 0.736 | 0.452 | 0.417 | 0.814 | 1.06
G fixed | 0.692 | 1.03 | 1 | 1.09 | 0.983 | 0.826 | 1.08 | 1.06 | 1.1
H fixed | 0.506 | 1.23 | 1.37 | 1.07 | 1.13 | 0.589 | 0.674 | 1.01 | 1.2
I fixed | 0.488 | 1.4 | 0.957 | 1.01 | 0.726 | 0.605 | 0.387 | 0.928 | 1
K fixed | 0.631 | 0.679 | 0.626 | 0.801 | 1.31 | 0.712 | 0.739 | 1.1 | 1.05
L fixed | 0.463 | 1.6 | 1.36 | 1.04 | 0.887 | 0.785 | 0.467 | 0.936 | 0.92
M fixed | 0.554 | 1.29 | 1.24 | 1.23 | 1.21 | 0.659 | 0.456 | 0.964 | 0.918
N fixed | 0.471 | 0.79 | 0.789 | 0.893 | 0.849 | 0.641 | 0.5 | 0.871 | 0.876
P fixed | 8.74 | 0.803 | 1.94 | 0.87 | 1.87 | 4.42 | 0.564 | 1.04 | 1.16
Q fixed | 0.475 | 0.721 | 0.882 | 0.861 | 0.998 | 0.608 | 0.618 | 0.891 | 0.95
R fixed | 0.783 | 0.811 | 0.725 | 0.714 | 1.46 | 2.63 | 8.09 | 2.1 | 1.73
V fixed | 0.537 | 1.27 | 0.761 | 0.86 | 0.907 | 0.805 | 0.366 | 0.726 | 0.767
W fixed | 0.54 | 0.941 | 1.03 | 1.23 | 0.708 | 0.486 | 0.497 | 0.934 | 0.814
Y fixed | 0.432 | 1.06 | 0.877 | 0.976 | 0.815 | 0.454 | 0.444 | 1 | 1.13
pThr fixed | 0.379 | 0.562 | 0.556 | 0.773 | 0.374 | 0.487 | 0.391 | 0.789 | 0.805
pTyr fixed | 0.441 | 0.547 | 0.598 | 0.87 | 0.612 | 0.419 | 0.45 | 0.782 | 0.791

TSSK2, construct: Full length, human (from UniProt Q96PF2)
relative phosphorylation
Settings | at +1 | at +2 | at +3 | at +4 | at -1 | at -2 | at -3 | at -4 | at -5
A fixed | 0.97 | 0.852 | 0.804 | 0.774 | 1.18 | 1.86 | 1.24 | 1.3 | 1.2
D fixed | 0.871 | 0.578 | 1.44 | 0.8 | 0.771 | 0.379 | 0.466 | 0.655 | 0.247
E fixed | 1.25 | 0.793 | 0.998 | 0.629 | 0.932 | 0.42 | 0.671 | 1.04 | 0.216
F fixed | 1.06 | 1.27 | 1.37 | 1.43 | 0.685 | 0.699 | 0.589 | 0.583 | 0.882
G fixed | 0.625 | 0.388 | 0.688 | 0.663 | 0.74 | 0.939 | 1.19 | 1.22 | 0.439
H fixed | 1.05 | 2.95 | 1.53 | 0.822 | 0.874 | 0.952 | 0.933 | 1.12 | 0.518
I fixed | 0.683 | 1.3 | 0.642 | 1.47 | 0.673 | 0.954 | 0.734 | 0.816 | 1.75
K fixed | 1.41 | 0.47 | 1.04 | 0.766 | 1.68 | 2.3 | 1.86 | 1.99 | 0.569
L fixed | 0.92 | 1.27 | 0.834 | 1.98 | 0.847 | 0.55 | 0.67 | 0.877 | 3.08
M fixed | 0.965 | 1.1 | 0.944 | 1.51 | 0.893 | 0.725 | 0.668 | 1.19 | 1.32
N fixed | 1.25 | 0.861 | 1.49 | 0.942 | 0.96 | 1.17 | 0.824 | 0.829 | 0.393
P fixed | 0.143 | 0.438 | 0.324 | 0.846 | 1.72 | 0.513 | 1.27 | 0.348 | 1.34
Q fixed | 1.31 | 1.09 | 0.95 | 0.882 | 1.41 | 1.08 | 0.935 | 0.849 | 0.71
R fixed | 1.78 | 0.574 | 1.11 | 0.648 | 1.49 | 1.77 | 2.96 | 1.85 | 0.952
V fixed | 0.867 | 1.02 | 0.677 | 1.25 | 0.763 | 1.47 | 0.802 | 0.921 | 2.15
W fixed | 0.789 | 0.915 | 1.28 | 0.941 | 0.6 | 0.452 | 0.598 | 0.594 | 0.541
Y fixed | 1.06 | 1.13 | 0.887 | 0.646 | 0.788 | 0.779 | 0.587 | 0.808 | 0.69
pThr fixed | 1.02 | 0.78 | 0.485 | 0.581 | 0.426 | 0.262 | 0.804 | 0.734 | 0.503
pTyr fixed | 0.925 | 0.79 | 0.814 | 0.556 | 0.831 | 0.284 | 0.641 | 0.428 | 0.752

PAK4, construct: aa295-end, human (from UniProt O96013)
relative phosphorylation
Settings | at +1 | at +2 | at +3 | at +4 | at -1 | at -2 | at -3 | at -4 | at -5
A fixed | 0.553 | 4.9 | 0.88 | 0.922 | 0.732 | 0.279 | 0.735 | 1.12 | 1.3
D fixed | 0.199 | 0.382 | 0.663 | 0.928 | 0.373 | 0.145 | 0.295 | 0.611 | 0.77
E fixed | 0.194 | 0.23 | 0.814 | 0.754 | 0.273 | 0.136 | 0.265 | 0.603 | 0.58
F fixed | 1.3 | 0.849 | 1.81 | 0.823 | 1.06 | 0.445 | 0.54 | 0.844 | 0.852
G fixed | 0.327 | 0.715 | 0.996 | 1.13 | 0.534 | 0.244 | 0.739 | 1.35 | 1.29
H fixed | 0.9 | 0.663 | 1.12 | 1.23 | 1.34 | 0.76 | 0.801 | 1.17 | 1.09
I fixed | 1.79 | 1.14 | 1.36 | 0.8 | 0.563 | 0.284 | 0.415 | 0.655 | 0.727
K fixed | 0.621 | 0.267 | 0.544 | 0.817 | 1.45 | 0.725 | 3.15 | 1.51 | 1.53
L fixed | 1.38 | 0.673 | 1.35 | 0.788 | 1.18 | 0.244 | 0.49 | 0.74 | 0.71
M fixed | 1.96 | 0.588 | 1.1 | 0.877 | 1.38 | 0.334 | 0.599 | 0.913 | 0.714
N fixed | 0.366 | 0.542 | 0.542 | 0.91 | 0.967 | 0.287 | 0.77 | 0.873 | 1
P fixed | 0.215 | 0.667 | 0.797 | 2.16 | 0.251 | 0.634 | 0.684 | 0.868 | 1.03
Q fixed | 0.694 | 0.433 | 0.682 | 1.02 | 1.06 | 0.641 | 0.96 | 0.902 | 0.897
R fixed | 0.964 | 0.297 | 0.615 | 0.983 | 2.76 | 10 | 4.61 | 1.98 | 1.81
V fixed | 1.47 | 2.1 | 1.07 | 0.761 | 0.579 | 0.282 | 0.413 | 0.66 | 0.75
W fixed | 2.49 | 0.806 | 1.45 | 1.21 | 1.19 | 0.417 | 0.876 | 1.27 | 0.987
Y fixed | 1.57 | 1.75 | 1.2 | 0.894 | 1.3 | 1.1 | 0.651 | 0.941 | 0.961
pThr fixed | 0.339 | 0.403 | 0.705 | 1.45 | 0.233 | 0.218 | 0.398 | 0.688 | 0.662
pTyr fixed | 0.514 | 0.767 | 1.34 | 1.19 | 0.261 | 0.232 | 0.402 | 0.579 | 0.65
